Measured values as given in article PMC9453702, “Structure-function analysis of enterovirus protease 2A in complex with its essential host factor SETD3” (Nature Communications, 2022).

Assays:
[1] = biological target: 2xStrep-tagged catalytically dead CV-B3 2A, expressed in human cells; assay: FLAG affinity purification with label-free quantitative MS; settings: co-transfected CV-B3 2A; four biologically independent experiments; parent: est. 5.5e7; read off a plot
actin (Homo sapiens) = actin (Homo sapiens) (UniProt P60709); settings: cited from earlier work
[2] = biological target: coxsackievirus B3 protease 2A with C-terminal His6-tag (for biolayer interferometry); assay: biolayer interferometry; settings: parent: 0.0051 s-1
[3] = biological target: coxsackievirus B3 protease 2A with C-terminal His6-tag (for biolayer interferometry) (coxsackievirus B3 (Nancy strain)); assay: BLI; Octet RED384; His-tagged 2A loaded on Ni-NTA biosensors at 20 µg/ml, SETD3 variants in solution at several concentrations; 20 mM Tris/HCl pH 8.0, 150 mM NaCl, 5% glycerol, 1 mM DTT; global fit with Rmax unlinked
[4] = biological target: coxsackievirus B3 (Nancy strain) protease 2A, C107A (recombinant, tag cleaved) (coxsackievirus B3 (Nancy strain))
[5] = biological target: T1, human SETD3, wild type (recombinant, tag cleaved) (human, UniProt Q86TU7 1-594); assay: BLI; competition: His-tagged 2A on Ni-NTA biosensors, 3-fold dilution series of actin peptide (40 nM to 10 µM) with SETD3 constant at 310 nM; 20 mM Tris/HCl pH 8.0, 150 mM NaCl, 5% glycerol, 1 mM DTT; maximum binding against peptide concentration; settings: both partners purified
T1 construct: SETD3, actin histidine methyltransferase, human; codon-optimised gene in vector 2G-T; also called WT SETD3; SETD3 WT; source: E. coli BL21*(DE3), purified (Glutathione Sepharose 4B, TEV digest, His-Trap FF flow-through; Superdex 200 Increase for BLI)
T1 sequence: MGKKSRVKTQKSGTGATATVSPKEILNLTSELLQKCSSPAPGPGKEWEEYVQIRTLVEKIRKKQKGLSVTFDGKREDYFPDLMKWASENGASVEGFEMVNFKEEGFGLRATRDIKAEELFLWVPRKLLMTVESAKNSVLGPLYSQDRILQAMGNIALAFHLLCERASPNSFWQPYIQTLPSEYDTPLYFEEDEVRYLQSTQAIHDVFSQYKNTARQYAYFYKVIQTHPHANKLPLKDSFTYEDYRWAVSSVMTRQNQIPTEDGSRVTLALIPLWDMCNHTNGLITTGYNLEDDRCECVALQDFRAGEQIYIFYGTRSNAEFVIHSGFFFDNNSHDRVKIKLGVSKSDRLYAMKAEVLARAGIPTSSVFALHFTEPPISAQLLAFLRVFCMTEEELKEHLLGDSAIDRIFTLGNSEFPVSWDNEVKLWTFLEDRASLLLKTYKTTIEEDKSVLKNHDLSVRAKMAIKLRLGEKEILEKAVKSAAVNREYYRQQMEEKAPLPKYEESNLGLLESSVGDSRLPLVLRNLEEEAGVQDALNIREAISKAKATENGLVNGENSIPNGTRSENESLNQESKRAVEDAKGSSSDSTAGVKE

## FLAG-tagged SETD3, wild type, expressed in human cells (from UniProt Q86TU7) Q257A; V266D
[1]
  response: 1.7e+06

## FLAG-tagged SETD3, wild type, expressed in human cells (from UniProt Q86TU7) Q257A; V266D; Y288P
[1]
  response: 900000

## FLAG-tagged SETD3, wild type, expressed in human cells (from UniProt Q86TU7) Q257A; V266D; Y288P; G361R
[1]
  response: 450000

## SETD3 (from UniProt Q86TU7)
Actin (Homo sapiens)
  Kd: 170 nM

## human SETD3, wild type (recombinant, tag cleaved) (from UniProt Q86TU7) G361R
[2]
  koff: 0.0116 s⁻¹

## human SETD3, wild type (recombinant, tag cleaved) (from UniProt Q86TU7) G361R; F409A
[2]
  koff: 0.0131 s⁻¹

## human SETD3, wild type (recombinant, tag cleaved) (from UniProt Q86TU7) Q257A; V266D
[2]
  koff: 0.45 s⁻¹

## human SETD3, wild type (recombinant, tag cleaved) (from UniProt Q86TU7) Y288P
[2]
  koff: 0.32 s⁻¹

B1: human SETD3, wild type (recombinant, tag cleaved) (enzyme)
chain: MGKKSRVKTQKSGTGATATVSPKEILNLTSELLQKCSSPAPGPGKEWEEYVQIRTLVEKIRKKQKGLSVTFDGKREDYFPDLMKWASENGASVEGFEMVNFKEEGFGLRATRDIKAEELFLWVPRKLLMTVESAKNSVLGPLYSQDRILQAMGNIALAFHLLCERASPNSFWQPYIQTLPSEYDTPLYFEEDEVRYLQSTQAIHDVFSQYKNTARQYAYFYKVIQTHPHANKLPLKDSFTYEDYRWAVSSVMTRQNQIPTEDGSRVTLALIPLWDMCNHTNGLITTGYNLEDDRCECVALQDFRAGEQIYIFYGTRSNAEFVIHSGFFFDNNSHDRVKIKLGVSKSDRLYAMKAEVLARAGIPTSSVFALHFTEPPISAQLLAFLRVFCMTEEELKEHLLGDSAIDRIFTLGNSEFPVSWDNEVKLWTFLEDRASLLLKTYKTTIEEDKSVLKNHDLSVRAKMAIKLRLGEKEILEKAVKSAAVNREYYRQQMEEKAPLPKYEESNLGLLESSVGDSRLPLVLRNLEEEAGVQDALNIREAISKAKATENGLVNGENSIPNGTRSENESLNQESKRAVEDAKGSSSDSTAGVKE
[3]
  Kd: 47 nM
[4]
  2A protease activity towards a FRET peptide of the VP1-2A cis-cleavage site; catalytically active WT 2A alone against its complex with WT SETD3: 1.5 fold
  kcat/Km of catalytically active WT 2A in complex with WT SETD3 towards a FRET peptide of the VP1-2A cis-cleavage site (1.5 mM^-1 min^-1 for 2A alone): 38 M⁻¹ s⁻¹

B2: human SETD3 Y288P (recombinant, tag cleaved) (enzyme)
chain: MGKKSRVKTQKSGTGATATVSPKEILNLTSELLQKCSSPAPGPGKEWEEYVQIRTLVEKIRKKQKGLSVTFDGKREDYFPDLMKWASENGASVEGFEMVNFKEEGFGLRATRDIKAEELFLWVPRKLLMTVESAKNSVLGPLYSQDRILQAMGNIALAFHLLCERASPNSFWQPYIQTLPSEYDTPLYFEEDEVRYLQSTQAIHDVFSQYKNTARQYAYFYKVIQTHPHANKLPLKDSFTYEDYRWAVSSVMTRQNQIPTEDGSRVTLALIPLWDMCNHTNGLITTGPNLEDDRCECVALQDFRAGEQIYIFYGTRSNAEFVIHSGFFFDNNSHDRVKIKLGVSKSDRLYAMKAEVLARAGIPTSSVFALHFTEPPISAQLLAFLRVFCMTEEELKEHLLGDSAIDRIFTLGNSEFPVSWDNEVKLWTFLEDRASLLLKTYKTTIEEDKSVLKNHDLSVRAKMAIKLRLGEKEILEKAVKSAAVNREYYRQQMEEKAPLPKYEESNLGLLESSVGDSRLPLVLRNLEEEAGVQDALNIREAISKAKATENGLVNGENSIPNGTRSENESLNQESKRAVEDAKGSSSDSTAGVKE
[3]
  Kd: 2500 nM

B3: human SETD3 Q257A + V266D (recombinant, tag cleaved) (enzyme)
chain: MGKKSRVKTQKSGTGATATVSPKEILNLTSELLQKCSSPAPGPGKEWEEYVQIRTLVEKIRKKQKGLSVTFDGKREDYFPDLMKWASENGASVEGFEMVNFKEEGFGLRATRDIKAEELFLWVPRKLLMTVESAKNSVLGPLYSQDRILQAMGNIALAFHLLCERASPNSFWQPYIQTLPSEYDTPLYFEEDEVRYLQSTQAIHDVFSQYKNTARQYAYFYKVIQTHPHANKLPLKDSFTYEDYRWAVSSVMTRQNAIPTEDGSRDTLALIPLWDMCNHTNGLITTGYNLEDDRCECVALQDFRAGEQIYIFYGTRSNAEFVIHSGFFFDNNSHDRVKIKLGVSKSDRLYAMKAEVLARAGIPTSSVFALHFTEPPISAQLLAFLRVFCMTEEELKEHLLGDSAIDRIFTLGNSEFPVSWDNEVKLWTFLEDRASLLLKTYKTTIEEDKSVLKNHDLSVRAKMAIKLRLGEKEILEKAVKSAAVNREYYRQQMEEKAPLPKYEESNLGLLESSVGDSRLPLVLRNLEEEAGVQDALNIREAISKAKATENGLVNGENSIPNGTRSENESLNQESKRAVEDAKGSSSDSTAGVKE
[3]
  Kd: 10000 nM

B4: human SETD3 G361R (recombinant, tag cleaved) (enzyme)
chain: MGKKSRVKTQKSGTGATATVSPKEILNLTSELLQKCSSPAPGPGKEWEEYVQIRTLVEKIRKKQKGLSVTFDGKREDYFPDLMKWASENGASVEGFEMVNFKEEGFGLRATRDIKAEELFLWVPRKLLMTVESAKNSVLGPLYSQDRILQAMGNIALAFHLLCERASPNSFWQPYIQTLPSEYDTPLYFEEDEVRYLQSTQAIHDVFSQYKNTARQYAYFYKVIQTHPHANKLPLKDSFTYEDYRWAVSSVMTRQNQIPTEDGSRVTLALIPLWDMCNHTNGLITTGYNLEDDRCECVALQDFRAGEQIYIFYGTRSNAEFVIHSGFFFDNNSHDRVKIKLGVSKSDRLYAMKAEVLARARIPTSSVFALHFTEPPISAQLLAFLRVFCMTEEELKEHLLGDSAIDRIFTLGNSEFPVSWDNEVKLWTFLEDRASLLLKTYKTTIEEDKSVLKNHDLSVRAKMAIKLRLGEKEILEKAVKSAAVNREYYRQQMEEKAPLPKYEESNLGLLESSVGDSRLPLVLRNLEEEAGVQDALNIREAISKAKATENGLVNGENSIPNGTRSENESLNQESKRAVEDAKGSSSDSTAGVKE
[3]
  Kd: 110 nM

B5: human SETD3 G361R + F409A (recombinant, tag cleaved) (enzyme)
chain: MGKKSRVKTQKSGTGATATVSPKEILNLTSELLQKCSSPAPGPGKEWEEYVQIRTLVEKIRKKQKGLSVTFDGKREDYFPDLMKWASENGASVEGFEMVNFKEEGFGLRATRDIKAEELFLWVPRKLLMTVESAKNSVLGPLYSQDRILQAMGNIALAFHLLCERASPNSFWQPYIQTLPSEYDTPLYFEEDEVRYLQSTQAIHDVFSQYKNTARQYAYFYKVIQTHPHANKLPLKDSFTYEDYRWAVSSVMTRQNQIPTEDGSRVTLALIPLWDMCNHTNGLITTGYNLEDDRCECVALQDFRAGEQIYIFYGTRSNAEFVIHSGFFFDNNSHDRVKIKLGVSKSDRLYAMKAEVLARARIPTSSVFALHFTEPPISAQLLAFLRVFCMTEEELKEHLLGDSAIDRIATLGNSEFPVSWDNEVKLWTFLEDRASLLLKTYKTTIEEDKSVLKNHDLSVRAKMAIKLRLGEKEILEKAVKSAAVNREYYRQQMEEKAPLPKYEESNLGLLESSVGDSRLPLVLRNLEEEAGVQDALNIREAISKAKATENGLVNGENSIPNGTRSENESLNQESKRAVEDAKGSSSDSTAGVKE
[3]
  Kd: 132 nM

B6: synthetic actin peptide, residues 66-81, H73L (peptide)
peptide: TLKYPIELGIVTNWDD
notes: also called actin peptide 66-81 with His73 replaced by leucine; source: synthetic peptide
[5]
  IC50: 1500 to 3400 nM
